# Experimental data reported in publication PMC1405818.
# Legend:
# LEDGF/p75 93-226 = LEDGF/p75 93-226 (human, UniProt O75475 93-226); assay: EMSA
# LEDGF/p75 wild type [1] = molecular target: T1, LEDGF/p75 wild type (human, UniProt O75475 1-530); assay: EMSA
# LEDGF/p75 wild type [2] = molecular target: T1, LEDGF/p75 wild type; assay: SPR
# MutL3 = MutL3 (human, UniProt O75475 1-530, R180A;G181A;R182A;R194A;G195A;R196A); assay: SPR
# MutL5 = MutL5 (human, UniProt O75475 1-530, R194A;G195A;R196A); assay: SPR
# MutL4 = MutL4 (human, UniProt O75475 1-530, R180A;G181A;R182A); assay: SPR
# LEDGF/p75 wild type [3] = molecular target: T1, LEDGF/p75 wild type; assay: SPR; remark: listed apart in the source
# LEDGF/p75 wild type [4] = molecular target: T1, LEDGF/p75 wild type; assay: EMSA; remark: listed apart in the source
# [5] = molecular target: LEDGF/p75 1-116 (PWWP domain) (human, UniProt O75475 1-116); assay: EMSA
# [6] = molecular target: LEDGF/p75 347-530 (IBD fragment) (human, UniProt O75475 347-530); assay: EMSA
# Chain of LEDGF/p75 347-530 (IBD fragment) (O75475 347-530): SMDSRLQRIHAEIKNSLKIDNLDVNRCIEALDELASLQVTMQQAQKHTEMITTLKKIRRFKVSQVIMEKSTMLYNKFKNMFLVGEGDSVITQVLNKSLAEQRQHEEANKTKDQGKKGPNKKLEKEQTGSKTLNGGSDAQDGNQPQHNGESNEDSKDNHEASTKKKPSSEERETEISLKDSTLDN
# T1 sequence (O75475 whole entry): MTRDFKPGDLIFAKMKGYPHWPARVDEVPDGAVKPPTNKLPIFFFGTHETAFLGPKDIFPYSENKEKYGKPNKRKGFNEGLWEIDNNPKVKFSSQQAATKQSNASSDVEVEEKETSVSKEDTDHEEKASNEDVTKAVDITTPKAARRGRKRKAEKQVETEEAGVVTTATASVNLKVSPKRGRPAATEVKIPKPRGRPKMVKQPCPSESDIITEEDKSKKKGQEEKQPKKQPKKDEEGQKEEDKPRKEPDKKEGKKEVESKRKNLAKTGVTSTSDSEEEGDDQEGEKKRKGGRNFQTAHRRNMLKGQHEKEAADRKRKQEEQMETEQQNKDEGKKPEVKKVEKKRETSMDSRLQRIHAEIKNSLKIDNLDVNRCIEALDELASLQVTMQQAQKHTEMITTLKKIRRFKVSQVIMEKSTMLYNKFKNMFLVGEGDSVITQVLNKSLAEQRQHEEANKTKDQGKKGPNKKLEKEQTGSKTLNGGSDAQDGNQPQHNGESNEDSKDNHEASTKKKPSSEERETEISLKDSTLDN
# Chain of LEDGF/p75 93-226 (O75475 93-226): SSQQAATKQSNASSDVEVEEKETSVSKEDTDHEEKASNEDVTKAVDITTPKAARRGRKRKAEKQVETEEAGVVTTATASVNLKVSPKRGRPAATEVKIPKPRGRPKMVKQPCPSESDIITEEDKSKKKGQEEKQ
# Chain of LEDGF/p75 1-116 (PWWP domain) (O75475 1-116): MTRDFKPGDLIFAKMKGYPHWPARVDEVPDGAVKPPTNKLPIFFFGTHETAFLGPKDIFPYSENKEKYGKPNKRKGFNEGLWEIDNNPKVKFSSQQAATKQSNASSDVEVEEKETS
# Chain of MutL5 (O75475 whole entry R194A/G195A/R196A): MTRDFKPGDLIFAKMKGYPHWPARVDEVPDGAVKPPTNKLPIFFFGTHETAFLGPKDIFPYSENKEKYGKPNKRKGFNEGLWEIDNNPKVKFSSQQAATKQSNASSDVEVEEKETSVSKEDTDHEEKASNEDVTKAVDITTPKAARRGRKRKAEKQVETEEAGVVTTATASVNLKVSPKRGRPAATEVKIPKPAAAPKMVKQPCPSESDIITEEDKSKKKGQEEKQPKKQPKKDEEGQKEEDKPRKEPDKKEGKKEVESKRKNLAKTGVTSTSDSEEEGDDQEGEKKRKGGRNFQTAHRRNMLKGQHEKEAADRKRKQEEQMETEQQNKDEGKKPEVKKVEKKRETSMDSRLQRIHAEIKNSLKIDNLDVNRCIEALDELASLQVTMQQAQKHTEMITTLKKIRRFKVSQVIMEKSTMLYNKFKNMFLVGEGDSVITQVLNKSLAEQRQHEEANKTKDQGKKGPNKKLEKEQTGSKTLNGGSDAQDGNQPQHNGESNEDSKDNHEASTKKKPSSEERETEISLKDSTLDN
# Chain of MutL4 (O75475 whole entry R180A/G181A/R182A): as the sequence (O75475 whole entry R194A/G195A/R196A) above, with R180A, G181A, R182A, A194R, A195G, A196R counted along it
# Chain of MutL3 (O75475 whole entry R180A/G181A/R182A/R194A/G195A/R196A): as the sequence (O75475 whole entry R194A/G195A/R196A) above, with R180A, G181A, R182A counted along it
binder,measurement,setting,value
HSE EMSA duplex (AE1197/AE1198) (dsDNA) DNA 1: TTAACGAGAGAAGGTTCCAGA DNA 2: TCTGGAACCTTCTCTCGTTAA,binding result,LEDGF/p75 93-226,binds
same,binding result,LEDGF/p75 wild type [1],binds
Mut2 SPR duplex (AE2043/AE2002) (dsDNA) DNA 1: GATTTAACGAGATAATTTTACAGA DNA 2: TCTGTAAAATTATCTCGTTAA,binding result,LEDGF/p75 wild type [2],binds
Mut1 SPR duplex (AE2042/AE2000) (dsDNA) DNA 1: GATTTAACTAAATAAATTTTAAAA DNA 2: TTTTAAAATTTATTTAGTTAA,binding signal,MutL3,~7 % of WT stably bound
same,binding signal,MutL5,~13 % of WT stably bound
same,binding signal,MutL4,~45 % of WT stably bound
same,binding signal,LEDGF/p75 wild type [3],100 % of WT stably bound
HSE SPR duplex (AE2019/AE1198) (dsDNA) DNA 1: GATTTAACGAGAGAAGGTTCCAGA DNA 2: TCTGGAACCTTCTCTCGTTAA,binding result,LEDGF/p75 wild type [2],binds
Mut2 EMSA duplex (AE2001/AE2002) (dsDNA) DNA 1: TTAACGAGATAATTTTACAGA DNA 2: TCTGTAAAATTATCTCGTTAA,binding result,LEDGF/p75 93-226,binds
same,binding result,LEDGF/p75 wild type [1],binds
Mut1 EMSA duplex (AE1199/AE2000) (dsDNA) DNA 1: TTAACTAAATAAATTTTAAAA DNA 2: TTTTAAAATTTATTTAGTTAA,binding result,LEDGF/p75 wild type [4],binds
same,binding result,[5],no binding
same,binding result,[6],no binding
